Laboratory results from patent CN116444667A (SHANGHAI IASO BIOTECH CO LTD, dated 2023).

T1: GDF15 hFc tag, KACTUS, GDF-HM215 (UniProt Q99988 197-308)
T1 construct: also called GDF15蛋白; not shown: hFc tag
T1 sequence (looked up): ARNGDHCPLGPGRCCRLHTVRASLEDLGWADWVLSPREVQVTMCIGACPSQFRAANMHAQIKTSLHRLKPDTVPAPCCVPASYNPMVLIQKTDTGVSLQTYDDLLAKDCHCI

T2: Human Latent GDF-2/BMP-9 Protein, His tag, Acro, GD2-H52H3 (human, UniProt Q9UK05 23-429)
T2 construct: Bought protein, latent form; not shown: His tag
T2 sequence (looked up): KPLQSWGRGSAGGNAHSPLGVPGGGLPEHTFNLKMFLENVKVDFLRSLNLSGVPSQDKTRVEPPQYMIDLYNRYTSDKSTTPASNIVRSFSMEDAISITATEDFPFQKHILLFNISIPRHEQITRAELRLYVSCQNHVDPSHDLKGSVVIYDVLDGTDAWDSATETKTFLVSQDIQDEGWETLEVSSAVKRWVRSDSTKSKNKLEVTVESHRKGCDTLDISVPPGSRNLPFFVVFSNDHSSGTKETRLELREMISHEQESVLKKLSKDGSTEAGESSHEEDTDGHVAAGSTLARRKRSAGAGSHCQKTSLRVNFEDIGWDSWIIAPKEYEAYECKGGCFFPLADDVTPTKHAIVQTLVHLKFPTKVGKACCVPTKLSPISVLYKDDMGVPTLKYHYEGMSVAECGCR

T3: Biotinylated CD39 Protein, hFc Tag, KACTUS, CD9-HM239B (UniProt P49961 38-478, biotinylated)
T3 construct: Control antigen; also called CD39-bio-hFc; 负淘选抗原; not shown: hFc tag
T3 sequence (looked up): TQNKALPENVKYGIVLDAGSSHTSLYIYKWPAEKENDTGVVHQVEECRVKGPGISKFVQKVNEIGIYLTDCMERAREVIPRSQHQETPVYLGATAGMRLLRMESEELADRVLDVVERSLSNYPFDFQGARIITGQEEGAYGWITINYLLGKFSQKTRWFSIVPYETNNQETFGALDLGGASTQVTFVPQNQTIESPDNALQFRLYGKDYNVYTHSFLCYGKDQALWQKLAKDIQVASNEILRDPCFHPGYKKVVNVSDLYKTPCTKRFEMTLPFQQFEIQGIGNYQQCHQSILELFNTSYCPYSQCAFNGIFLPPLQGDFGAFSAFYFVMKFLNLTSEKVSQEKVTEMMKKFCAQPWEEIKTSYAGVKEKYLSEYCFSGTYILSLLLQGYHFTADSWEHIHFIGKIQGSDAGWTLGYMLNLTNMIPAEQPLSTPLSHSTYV

T4: Biotinylated Human GDF15 Protein (Primary Amine Labeling), KACTUS, GDF-HM215B (human, UniProt Q99988 197-308, biotinylated (primary amine labeling))
T4 construct: Bought protein; also called human GDF15-bio-hFc; humanGDF15-bio-hFc; not shown: hFc tag
T4 sequence (looked up): T1 sequence (looked up)

B1: Clone 68 抗GDF15 IgG (human IgG4) (Fc fusion)
chain: QVQLVQSGAEVKKPGASVKVSCKASGYTFTNYGINWVRQAPGQGLEWMGWISAYNGYTDYAQKLQGRVSMTTDTSTSTVYMELRSLRSDDTAVYYCARDDAINGGDYWGQGTLVTVSSTSGGGGSGGGGSGGGGSELSYVLTQPPSASGTPGQRVTISCSGSSSNIGINTVNWYQQLPGTAPKLLIYINNQRPSGVPDRFSGSKSGTSASLAISGLQSEDEADYYCAAWDDSLNAYVFGSGTKVTVL
notes: also called GDF15 mAb; not shown: human IgG4 Fc
B2: Clone 68 (噬菌体单克隆) (other)
VH: QVQLVQSGAEVKKPGASVKVSCKASGYTFTNYGINWVRQAPGQGLEWMGWISAYNGYTDYAQKLQGRVSMTTDTSTSTVYMELRSLRSDDTAVYYCARDDAINGGDYWGQGTLVTVSS
VL: not shown

How the values were obtained:
[1] = biological target: T1, GDF15 hFc tag, KACTUS, GDF-HM215; experiment: competition ELISA: GDF15 hFc coated, antibody titrated against GFRAL His tag (competitor), anti-His HRP
[2] = biological target: T2, Human Latent GDF-2/BMP-9 Protein, His …; experiment: phage ELISA
[3] = biological target: T3, Biotinylated CD39 Protein, hFc Tag, …; experiment: phage ELISA
[4] = biological target: T4, Biotinylated Human GDF15 Protein …; experiment: phage ELISA
[5] = biological target: T5, Streptavidin (SA蛋白), Pierce, 21125 (UniProt P22629 37-163, limits assumed); experiment: phage ELISA
T5 construct: Control antigen in the specificity ELISA; also called Strepavidin
T5 sequence (P22629 37-163 limits assumed): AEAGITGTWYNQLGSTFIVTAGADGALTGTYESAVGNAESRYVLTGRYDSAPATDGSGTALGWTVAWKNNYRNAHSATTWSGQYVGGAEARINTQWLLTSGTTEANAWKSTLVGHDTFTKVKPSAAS

Binder | EC50 [1] [nM] | binding result [2] | binding result [3] | binding result [4] | binding result [5]
B1 | 1.4 | – | – | – | –
B2 | – | no binding | no binding | binds | no binding
